Data published in article PMC5622162, “PLPP/CIN Regulates Seizure Activity by the Differential Modulation of Calsenilin Binding to GluN1 and Kv4.2 in Mice” (Frontiers in Molecular Neuroscience, 2017).

Biological target: T1, calsenilin (CSEN), endogenous in mouse hippocampus or brain (mouse (endogenous in hippocampus), UniProt Q9QXT8 1-256)
T1 construct: calsenilin (CSEN, DREAM, KChIP3), endogenous mouse protein; a mixture of phosphorylated and dephosphorylated forms in the lysate; The state of phosphorylation differs with genotype and treatment; also called pCSEN; DREAM; source: endogenous, mouse hippocampus lysate (RIPA); crude extracts of PLPP/CIN-/- mouse brain
T1 sequence (looked up): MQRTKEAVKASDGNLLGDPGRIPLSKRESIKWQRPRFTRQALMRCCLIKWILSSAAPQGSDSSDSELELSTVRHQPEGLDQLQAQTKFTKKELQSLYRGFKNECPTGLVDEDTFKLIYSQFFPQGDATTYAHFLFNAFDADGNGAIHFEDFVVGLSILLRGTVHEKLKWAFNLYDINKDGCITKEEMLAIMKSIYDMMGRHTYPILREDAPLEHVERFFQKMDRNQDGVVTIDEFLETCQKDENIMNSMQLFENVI
Assay: co-IP; in vitro: recombinant PLPP/CIN (10 ng/ul) added to crude extracts of PLPP/CIN^-/- mouse brain at 30°C for 1 h; co-precipitation with endogenous CSEN and western blot
Conditions: one partner purified

binding of CSEN with CK1 left in the presence of PLPP/CIN, fold of vehicle: 0.68 fold of vehicle level
B1: recombinant human pyridoxal-5'-phosphate phosphatase/chronophin (PLPP/CIN) (enzyme, UniProt Q96GD0 1-296, looked up)
chain: MARCERLRGAALRDVLGRAQGVLFDCDGVLWNGERAVPGAPELLERLARAGKAALFVSNNSRRARPELALRFARLGFGGLRAEQLFSSALCAARLLRQRLPGPPDAPGAVFVLGGEGLRAELRAAGLRLAGDPSAGDGAAPRVRAVLVGYDEHFSFAKLREACAHLRDPECLLVATDRDPWHPLSDGSRTPGTGSLAAAVETASGRQALVVGKPSPYMFECITENFSIDPARTLMVGDRLETDILFGHRCGMTTVLTLTGVSRLEEAQAYLAAGQHDLVPHYYVESIADLTEGLED
notes: pyridoxal-5'-phosphate phosphatase/chronophin (PLPP/CIN), human, recombinant protein from Abcam; the words 'full-length recombinant human' stand before CSEN and are read as holding for PLPP/CIN too; source: bought: Abcam (recombinant)
